Source: patent US20240040982, “CEREAL GRAIN WITH THICKENED ALEURONE” (Commonwealth Scientific and Industrial Research Organisation, published 2024)

Target: T1, TA1 (OsmtSSB-1a) (Oryza sativa)
T1 chain: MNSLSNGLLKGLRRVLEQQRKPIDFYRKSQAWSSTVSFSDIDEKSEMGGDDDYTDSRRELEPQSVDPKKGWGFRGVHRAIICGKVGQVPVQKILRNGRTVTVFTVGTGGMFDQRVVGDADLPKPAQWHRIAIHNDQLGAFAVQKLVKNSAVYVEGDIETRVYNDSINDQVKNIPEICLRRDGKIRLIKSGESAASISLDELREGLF
Assay: EMSA; 2 ug protein, 750 amol probe, room temperature 10 min; competed by 2x, 20x, 200x unlabelled ssDNA
Conditions: tags: N-terminal 6xHis (pET-30a), expressed in E. coli; label: 3' biotin (biotinylated CTP)
Experimental: The affinity of purified 6×His-TA1 protein for ssDNA was determined using an EMSA (Thermo Cat. No. 20148X) as described in general terms by Reddy et al. (2001). A 45-nucleotide single-stranded oligonucleotide (SEQ ID NO:60) was labelled at the 3′ end with biotinylated CTP (Thermo Cat. No. 89818) according to the manufacturer's instructions. Recombinant 6×His-TA1 protein (2 μg) was added to 750 attomoles of biotin-labelled oligonucleotide and the mixture was incubated at room temperature for 10 min. A control sample lacked the 6×His-TA1 protein was applied to lane 1 in FIG. 11. Separate reactions were carried out in the presence of a 60-bp double-stranded DNA (dsDNA; control fragment from Thermo EMSA kit) to determine if the mobility shift was specific for ssDNA. Binding reaction products were separated by electrophoresis in a 5% native polyacrylamide gel in 0.5×TBE (Bio-Rad) and transferred to a nylon membrane (Bio-Rad). DNA bands were visualized using streptavidin-conjugated horseradish peroxidase (Thermo).

ACTCCCTCTCCCTTGCGGATTCGAATGGTAGTACATTCTCTTCGA (ssDNA) [45-nt EMSA ssDNA probe]
binding result: binds
